Assay results published in US20240317857A1 (AMPSOURCE BIOPHARMA SHANGHAI, published 2024).

Key:
[1] = molecular target: T1, His-labeled human CD3E (human, UniProt P07766 23-126); assay: BLI (Octet), His-labeled human CD3E on Ni-NTA sensors, antibody 3.125-100 nM
T1 construct: also called human CD3E antigen; antigen CD3E; not shown: His label
Description: (§1) The binding affinity constants of the purified murine monoclonal antibodies to antigen CD3E were determined by […] (BLI) with the ForteBio Octet RED&QK system from PALL Corporation. Concentration gradients of a multichannel parallel quantitative analysis were set to 3.125, 6.25, 12.5, 25, 50 and 100 nM, and His-labeled human CD3E (10 μg/mL) was coupled to Ni-NTA sensors.

[2] = molecular target: T2, human CD3E (purchased from Acro Biosystems) (human, UniProt P07766 23-126); assay: ELISA, plate coated with human CD3E
T2 construct: also called human CD3 antigen; human CD3E molecules
T2 sequence (P07766 23-126 limits assumed): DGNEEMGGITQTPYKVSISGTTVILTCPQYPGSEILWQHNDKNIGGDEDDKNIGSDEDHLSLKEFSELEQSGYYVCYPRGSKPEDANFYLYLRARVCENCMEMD
Description: A microtiter plate was coated with 100 μL of 0.1 μg/mL human CD3E (purchased from Acro Biosystems) overnight at room temperature. The coating solution was discarded, and the wells were blocked with skimmed milk dissolved in phosphate buffered saline (PBS) for 0.5 hours and washed with PBS containing 0.05% Tween-20 (PBST). Then the purified murine antibodies AP191, AP591 and AP831 against human CD3 were added with 50 μL per well and incubated for 1 h at room temperature. The wells were washed with 0.05% PBST. Then 50 μL of HRP-labeled goat anti-mouse IgG polyclonal antibody (purchased from Jackson Laboratory) was added per well as the detected antibody and incubated for 1 h at 37° C. The wells were washed three times with 0.05% PBST, added with TMB (100 μL/well) and developed at room temperature for 5 min. 0.2 M H₂SO₄ was added to terminate the reaction, 50 μL/well. Absorption values were read by a microplate reader at double wavelengths 450 nm/620 nm. Plotting was performed by software GraphPad Prism 6 with OD 450 nm/620 nm as the Y-axis and an antibody concentration as the X-axis.

[3] = molecular target: T3, human CD3 on human T cells (human, UniProt P07766 23-207); assay: flow cytometry on human primary T cells
T3 construct: whole, on cells; also called human primary T cells; NFAT-Jurkat cells
T3 sequence (P07766 23-207): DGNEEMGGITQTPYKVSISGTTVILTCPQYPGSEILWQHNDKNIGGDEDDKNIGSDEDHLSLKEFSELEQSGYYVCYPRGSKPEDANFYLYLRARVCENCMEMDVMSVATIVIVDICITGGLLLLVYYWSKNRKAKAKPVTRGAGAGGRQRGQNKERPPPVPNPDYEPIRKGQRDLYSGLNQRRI

[4] = molecular target: T1, His-labeled human CD3E; assay: BLI (Octet), method of Example 3: His-labeled human CD3E on Ni-NTA sensors
Description: as §1
For example, the experimental method for determining the kinetic constants and affinity equilibrium dissociation constants of the humanized antibodies was as described in Example 3.

T1 sequence (P07766 23-126): as the sequence (P07766 23-126 limits assumed) above

| Binder | Kd [1] [pM] | koff [1] [s⁻¹] | kon [1] [M⁻¹ s⁻¹] | EC50 [2] [pM] | EC50 [3] [pM] | Kd [4] [pM] | koff [4] [s⁻¹] | kon [4] [M⁻¹ s⁻¹] |
| --- | --- | --- | --- | --- | --- | --- | --- | --- |
| murine monoclonal antibody AP191 (antibody, mouse IgG1, V domains shown) VH: QVQLQQSGPELVKPGASMKMSCKASGYTFTSYYIHWVKQRPGQGLEWIGWIYPGDGSTKFNEKFRGKTSLTADKSSNTAYMFLSSLTSEDSAIYFCARDGYSLYYFEFWGHGTTLTVSS VL: DIVMSQSPSSLAVSAGETVTMSCKSSQSLLNSRTRKTYLAWYQQKPGQSPKLLIYWASTRDSGVPDRFTGSGSGTDFTLTISSVQAEDLAVYYCVQSYTLRTFGGGTKLEIK | 121 | 9.73e-05 | 802000 | 14.9 | 2740 | – | – | – |
| murine monoclonal antibody AP831 (antibody, mouse IgG1, V domains shown) VH: QVQLQQSGPELVKPGTSVKMSCKASGYTFTNNYIHWVKEKPGEGLEWIGWIYPGDGTTKYNEKFKGKTTLASDKSSNTVYMFLSSLTSEDSAIYFCTRNNNYYFDYWGQGTTLTVSS VL: DIVMSQSPSSLAVSAGEKVTMNCKSSQSLFNSRTRKNYLAWYQQKPGQSPKLLIYWASTRESGVPDRFTGSGSGTDFTLTISSVQAEDLALYYCKQSFILRTFGGGTKLEIK | – | – | 692000 | 40.4 | 825 | – | – | – |
| murine monoclonal antibody AP591 (antibody, mouse IgG1, V domains shown) VH: EVQLVESGGGLVQPKGSLKLSCAASGFTFNTYAMNWVRQAPGKGLEWVGRIRSKINNYATYYADSVRDRFTISRDDSQSMLYLQMSNLKTEDTAMYYCVRHDNFYGSTYSWFADWGQGTLVTVSA VL: AVVTQESALTTSPGETVTLTCRSSTGVVTTSNYANWVQEKPDHLFTGLIGATNYRVPGVPARFSGSLIGDKAALTITGAQTEDEAIYFCVLWYSNHWVFGGGTKLTVL | 19.4 | 1.04e-05 | 539000 | 28.3 | 8910 | – | – | – |
| humanized antibody AB616 (antibody, V domains shown) VH: EVQLLESGGGLVQPGGSLKLSCAASGFTFDTYAMNWVRQAPGKGLEWVGRIRSKINNYATYYADSVKDRFTISRDDSKNTAYLQMNNLKTEDTAMYYCVRHDNFYGSTYSWFADWGQGTLVTVSS VL: ELVVTQEPSLTVSPGGTVTLTCRSSTGVVTTSNYANWVQEKPDHLFTGLIGATNYRAPGTPARFSGSLLGGKAALTLSGVQPEDEAIYFCVLWYSNHWVFGGGTKLTVL | – | – | – | – | – | 116 | 2.97e-05 | 256000 |
| humanized antibody AB624 (antibody, V domains shown) VH: EVQLLESGGGLVQPGGSLKLSCAASGFTFNTYAMNWVRQAPGKGLEWVGRIRSKINNYATYYADSVKDRFTISRDDSKNTAYLQMNNLKTEDTAMYYCVRHDNFHGSTYSWFADWGQGTLVTVSS VL: ELVVTQEPSLTVSPGGTVTLTCRSSTGVVTTSNYANWVQEKPDHLFTGLIGATNYRAPGTPARFSGSLLGGKAALTLSGVQPEDEAIYFCVLWYSNHWVFGGGTKLTVL | – | – | – | – | – | 677 | 0.000201 | 296000 |
| humanized antibody AB623 (antibody, V domains shown) VH: EVQLLESGGGLVQPGGSLKLSCAASGFTFNTYAMNWVRQAPGKGLEWVGRIRSKINNYATYYADSVKDRFTISRDDSKNTAYLQMNNLKTEDTAMYYCVRHDNHYGSTYSWFADWGQGTLVTVSS VL: ELVVTQEPSLTVSPGGTVTLTCRSSTGVVTTSNYANWVQEKPDHLFTGLIGATNYRAPGTPARFSGSLLGGKAALTLSGVQPEDEAIYFCVLWYSNHWVFGGGTKLTVL | – | – | – | – | – | 23300 | 0.00119 | 51200 |
| humanized antibody AB617 (antibody, V domains shown) VH: EVQLLESGGGLVQPGGSLKLSCAASGFTFNDYAMNWVRQAPGKGLEWVGRIRSKINNYATYYADSVKDRFTISRDDSKNTAYLQMNNLKTEDTAMYYCVRHDNFYGSTYSWFADWGQGTLVTVSS VL: ELVVTQEPSLTVSPGGTVTLTCRSSTGVVTTSNYANWVQEKPDHLFTGLIGATNYRAPGTPARFSGSLLGGKAALTLSGVQPEDEAIYFCVLWYSNHWVFGGGTKLTVL | – | – | – | – | – | 2760 | 0.000698 | 252000 |
| humanized antibody AB621 (antibody, V domains shown) VH: EVQLLESGGGLVQPGGSLKLSCAASGFTFNTYAMNWVRQAPGKGLEWVGRIRSKINNYATYYADSVKDRFTISRDDSKNTAYLQMNNLKTEDTAMYYCVRHDNFYGSTYSWFADWGQGTLVTVSS VL: ELVVTQEPSLTVSPGGTVTLTCRSSTGVVTTSNHANWVQEKPDHLFTGLIGATNYRAPGTPARFSGSLLGGKAALTLSGVQPEDEAIYFCVLWYSNHWVFGGGTKLTVL | – | – | – | – | – | 2120 | 0.000369 | 174000 |
| humanized antibody AB625 (antibody, V domains shown) VH: EVQLLESGGGLVQPGGSLKLSCAASGFTFNTYAMNWVRQAPGKGLEWVGRIRSKINNYATYYADSVKDRFTISRDDSKNTAYLQMNNLKTEDTAMYYCVRHDNFYGSTHSWFADWGQGTLVTVSS VL: ELVVTQEPSLTVSPGGTVTLTCRSSTGVVTTSNYANWVQEKPDHLFTGLIGATNYRAPGTPARFSGSLLGGKAALTLSGVQPEDEAIYFCVLWYSNHWVFGGGTKLTVL | – | – | – | – | – | 1800 | 0.000318 | 177000 |
| humanized antibody AB622 (antibody, V domains shown) VH: EVQLLESGGGLVQPGGSLKLSCAASGFTFNTYAMNWVRQAPGKGLEWVGRIRSKINNYATYYADSVKDRFTISRDDSKNTAYLQMNNLKTEDTAMYYCVRHDNFYGSTYSWFADWGQGTLVTVSS VL: ELVVTQEPSLTVSPGGTVTLTCRSSTGVVTTSNYANWVQEKPDHLFTGLIGATNHRAPGTPARFSGSLLGGKAALTLSGVQPEDEAIYFCVLWYSNHWVFGGGTKLTVL | – | – | – | – | – | 1450 | 0.000391 | 270000 |
| humanized antibody AB626 (antibody, V domains shown) VH: EVQLLESGGGLVQPGGSLKLSCAASGFTFNTYAMNWVRQAPGKGLEWVGRIRSKINNYATYYADSVKDRFTISRDDSKNTAYLQMNNLKTEDTAMYYCVRHDNFYGSTYSHFADWGQGTLVTVSS VL: ELVVTQEPSLTVSPGGTVTLTCRSSTGVVTTSNYANWVQEKPDHLFTGLIGATNYRAPGTPARFSGSLLGGKAALTLSGVQPEDEAIYFCVLWYSNHWVFGGGTKLTVL | – | – | – | – | – | 182000 | 0.00169 | 9300 |

More lines, now with the values ahead:

| Kd [1] [pM] | koff [1] [s⁻¹] | kon [1] [M⁻¹ s⁻¹] | EC50 [2] [pM] | EC50 [3] [pM] | Kd [4] [pM] | koff [4] [s⁻¹] | kon [4] [M⁻¹ s⁻¹] | Binder |
| --- | --- | --- | --- | --- | --- | --- | --- | --- |
| – | – | – | – | – | ≤ 2.64 | < 1e-07 | 7300 | humanized antibody AB627 (antibody, V domains shown) VH: EVQLLESGGGLVQPGGSLKLSCAASGFTFNTYAMNWVRQAPGKGLEWVGRIRSKINNYATYYADSVKDRFTISRDDSKNTAYLQMNNLKTEDTAMYYCVRHDNFYGSTYSWHADWGQGTLVTVSS VL: ELVVTQEPSLTVSPGGTVTLTCRSSTGVVTTSNYANWVQEKPDHLFTGLIGATNYRAPGTPARFSGSLLGGKAALTLSGVQPEDEAIYFCVLWYSNHWVFGGGTKLTVL |
| – | – | – | – | – | < 1 | < 1e-07 | 51200 | humanized antibody AB618 (antibody, V domains shown) VH: EVQLLESGGGLVQPGGSLKLSCAASGFTFNTYAMNWVRQAPGKGLEWVGRIRSKINNYATYYADSVKDRFTISRDDSKNTAYLQMNNLKTEDTAMYYCVRHDNFYGSTYSWFADWGQGTLVTVSS VL: ELVVTQEPSLTVSPGGTVTLTCRSSTGVVTTSNYANWVQEKPDHLFTGLIGDTNYRAPGTPARFSGSLLGGKAALTLSGVQPEDEAIYFCVLWYSNHWVFGGGTKLTVL |
| – | – | – | – | – | 668 | 0.00017 | 254000 | humanized antibody AB615 (antibody, V domains shown) VH: EVQLLESGGGLVQPGGSLKLSCAASGFDFNTYAMNWVRQAPGKGLEWVGRIRSKINNYATYYADSVKDRFTISRDDSKNTAYLQMNNLKTEDTAMYYCVRHDNFYGSTYSWFADWGQGTLVTVSS VL: ELVVTQEPSLTVSPGGTVTLTCRSSTGVVTTSNYANWVQEKPDHLFTGLIGATNYRAPGTPARFSGSLLGGKAALTLSGVQPEDEAIYFCVLWYSNHWVFGGGTKLTVL |
| – | – | – | – | – | 169 | 4.26e-05 | 253000 | humanized antibody AB620 (antibody, V domains shown) VH: EVQLLESGGGLVQPGGSLKLSCAASGFTFDTYAMNWVRQAPGKGLEWVGRIRSKINNYATYYADSVKDRFTISRDDSKNTAYLQMNNLKTEDTAMYYCVRHDNFYGSTYSWFADWGQGTLVTVSS VL: ELVVTQEPSLTVSPGGTVTLTCRSSTGVVTTSNYANWVQEKPDHLFTGLIGATDYRAPGTPARFSGSLLGGKAALTLSGVQPEDEAIYFCVLWYSNHWVFGGGTKLTVL |
| – | – | – | – | – | 123 | 3.41e-05 | 276000 | humanized antibody AB619 (antibody, V domains shown) VH: EVQLLESGGGLVQPGGSLKLSCAASGFTFNTYAMNWVRQAPGKGLEWVGRIRSKINNYATYYADSVKDRFTISRDDSKNTAYLQMNNLKTEDTAMYYCVRHDNFYGSTYSWFADWGQGTLVTVSS VL: ELVVTQEPSLTVSPGGTVTLTCRSSTGVVTTSNYANWVQEKPDHLFTGLIGATDYRAPGTPARFSGSLLGGKAALTLSGVQPEDEAIYFCVLWYSNHWVFGGGTKLTVL |
